In patent US5550213, “Inhibitors of urokinase plasminogen activator” (Rutgers, The State University of New Jersey, dated 1996):

What was measured:
[1] = molecular target: T1, Urokinase plasminogen activator (Homo sapiens (Human), UniProt P00749); assay: inhibition of UK activity; Ki by non-linear regression (Enzfitter) of free enzyme versus inhibitor concentration
Protocol: Fractional enzyme activities for each inhibitor-UK interaction of the above discussed inhibitors were determined by the assay method of Empie and Laskowski (Empie, M. W. et al., *Biochem.* 21:2274–2284 (1982)), as adapted from Green and Work (Green, N. M. et al., Biochem. J. 54:347–352 (1953)). The concentration of UK used for these reactions was 35 nM. The reactions were carried out in Buffer C. […] These five mutants include the four detailed above (88, 89, 80, AND 91), and also a mutant with arginine at the P1 site of OM3TKY (P1-Arg). […] The values for PSTI, PAI-1, PAI-2, and Nexin-1 were obtained from Turpeinen, U. et al. (*Biochem. J.* 254:911–914 (1988)), Kruithof, C.K.O. et al. (Thromb.-Haemost. 55::65–68 (1986)), Christensen, U. et al. (Thromb.-Haemost. 48:24–26 (1982)), and Stein, P. E. et al. (*Nature* 347:99–102 (1990)), respectively.
K_i values for the wild-type and mutant inhibitors versus urokinase were also determined by non-linear regression of the following equation: […]
The non-linear regression was done using the program Enzfitter, by Robin Leatherbarrow. E_o represents a total enzyme concentration in the reaction, I_o represents total inhibitor concentration, E is the free enzyme for a given inhibitor concentration and K_i is the equilibrium constant for the inhibitor. E and K_i are the unknowns in the equation, and are solved for during the regression analysis. Enzyme and inhibitor concentrations used were determined as mentioned above.

[2] = molecular target: T1, Urokinase plasminogen activator; assay: inhibition of UK (35 nM) activity on S-2288; Ki as slope of [I]o/(1-a) vs. 1/a

| Ki [1] [µM] | Ki [2] [µM] | Binder |
| --- | --- | --- |
| 0.0676 | 0.04 | The PAI-2 derived mutant, 88 (designed binder) VDCSEYPKPACGRTGHPLCGSDNKTYGNKCNFCNAVVESNGTLTLSHFGKC |
| 0.0359 | 0.00031 | The PAI-1 derived mutant, 89 (designed binder) VDCSEYPKPACARMAAPLCGSDNKTYGNKCNFCNAVVESNGTLTLSHFGKC |
| 0.505 | 0.12 | The Nexin-1 derived mutant, 91 (designed binder) VDCSEYPKPACARSSAPLCGSDNKTYGNKCNFCNAVVESNGTLTLSHFGKC |
| 0.0513 | 0.106 | The Plasminogen derived mutant, 90 (designed binder) VDCSEYPKPACGRVVGPLCGSDNKTYGNKCNFCNAVVESNGTLTLSHFGKC |
